Data on 1 substance can be found in patent US20100093618A1.

This test addresses FLAG-Tat (p3XFLAG-CMV-Tat, wild type) (HIV-1) (UniProt P04608). The experiment in a line: cell-based or functional assay.

As for “HA-IκB-α 72-287 (pCMV4-HA-IκB-α 72-287, expressed in transfected cells) (from UniProt P25963 72-287)”, the translocation of Tat from the nucleus to the cytoplasm (confocal microscopy, HeLa cells) (% of the analyzed cells) is 50.
